{
  "source": "paper PMC8442604",
  "about": "(Frontiers in Immunology, 2021)",
  "data": [
    {"biological_target": "T1, SARS-CoV-2 RBD protein (321–591) (SARS-CoV-2, Wuhan-Hu-1 (MN908947), UniProt P0DTC2)", "experiment": "cell-based or functional assay", "details": "not given", "units": {"IC50 of neutralisation of authentic SARS-CoV-2 on Vero E6 cells (CPE assay)": "µg/mL"}, "values": [
      {"binder": "CB6H-XG83L (antibody, V domains shown) VH: EVQLVESGGGLVQPGGSLRLSCAASGFTVSSNYMSWVRQAPGKGLEWVSVIYSGGSTFYADSVKGRFTISRDNSMNTLFLQMNSLRAEDTAVYYCARVLPMYGDYLDYWGQGTLVTVSS VL: QSVLTQPPSVSGAPGQRVTISCTGSSSNIGAGYDVHWYQQLPGTAPKLLIYGDSNRPSGVPDRFSGSKSGTSASLAITGLQAEDEADFYCQSYDSSLSTSIFGGGTKLTVL", "IC50 of neutralisation of authentic SARS-CoV-2 on Vero E6 cells (CPE assay)": 1.1}
    ]},
    {"biological_target": "T1, SARS-CoV-2 RBD protein (321–591)", "experiment": "ELISA", "details": "one partner purified", "values": [
      {"binder": "EY6A (antibody, V domains shown) VH: EVQLVESGGGVVQPGRSLRLSCAASAFTFSSYDMHWVRQAPGKGLEWVAVISYDGSNKYYADSVKGRFTISRDNSKNTLYLQMNSLRAEDTAVYYCAKDGGKLWVYYFDYWGQGTLVTVSS VL: not shown", "binding result": "binds"},
      {"binder": "4A8 (antibody, V domains shown) VH: EVQLVESGAEVKKPGASVKVSCKVSGYTLTELSMHWVRQAPGKGLEWMGGFDPEDGETMYAQKFQGRVTMTEDTSTDTAYMELSSLRSEDTAVYYCATSTAVAGTPDLFDYYYGMDVWGQGTTVTVSS VL: EIVMTQSPLSSPVTLGQPASISCRSSQSLVHSDGNTYLSWLQQRPGQPPRLLIYKISNRFSGVPDRFSGSGAGTDFTLKISRVEAEDVGVYYCTQATQFPYTFGQGTKVDIK", "binding result": "no binding"},
      {"binder": "REGN10987 (antibody, V domains shown) VH: QVQLVESGGGVVQPGRSLRLSCAASGFTFSNYAMYWVRQAPGKGLEWVAVISYDGSNKYYADSVKGRFTISRDNSKNTLYLQMNSLRTEDTAVYYCASGSDYGDYLLVYWGQGTLVTVSS VL: QSALTQPASVSGSPGQSITISCTGTSSDVGGYNYVSWYQQHPGKAPKLMIYDVSKRPSGVSNRFSGSKSGNTASLTISGLQSEDEADYYCNSLTSISTWVFGGGTKLTVL", "binding result": "binds"},
      {"binder": "C105 (antibody, V domains shown) VH: QVQLVESGGGLIQPGGSLRLSCAASGFTVSSNYMSWVRQAPGKGLEWVSVIYSGGSTYYADSVKGRFTISRDNSKNTLYLQMNSLRAEDTAVYYCARGEGWELPYDYWGQGTLVTVSS VL: QSALTQPPSASGSPGQSVTISCTGTSSDVGGYKYVSWYQQHPGKAPKLMIYEVSKRPSGVPDRFSGSKSGNTASLTVSGLQAEDEADYYCSSYEGSNNFVVFGGGTKLTVL", "binding result": "binds"},
      {"binder": "2-4 (antibody, V domains shown) VH: QVQLVQSGAEVKKPGASVKVSCKASGYTFTGYYMHWVRQAPGQGLEWMGWINPNSGGTNYTQMFQGRVTMTRDTSISTAYMEVSRLRSDDTAVYYCARDRSWAVVYYYMDVWGKGTTVTVSS VL: QSALTQPPSASGSPGQSVTISCTGTSSDVGGYNYVSWYQQHPGKAPKLMIYEVSKRPSGVPDRFSGSKSGNTASLTVSGLQAEDEADYYCSSYAGSNNLVFGGGTKLTVL", "binding result": "binds"},
      {"binder": "B38 (antibody, V domains shown) VH: EVQLVESGGGLVQPGGSLRLSCAASGFIVSSNYMSWVRQAPGKGLEWVSVIYSGGSTYYADSVKGRFTISRHNSKNTLYLQMNSLRAEDTAVYYCAREAYGMDVWGQGTTVTVSS VL: DIVMTQSPSFLSASVGDRVTITCRASQGISSYLAWYQQKPGKAPKLLIYAASTLQSGVPSRFSGSGSGTEFTLTISSLQPEDFATYYCQQLNSYPPYTFGQGTKLEIK", "binding result": "binds"},
      {"binder": "REGN10933 (antibody, V domains shown) VH: QVQLVESGGGLVKPGGSLRLSCAASGFTFSDYYMSWIRQAPGKGLEWVSYITYSGSTIYYADSVKGRFTISRDNAKSSLYLQMNSLRAEDTAVYYCARDRGTTMVPFDYWGQGTLVTVSS VL: DIQMTQSPSSLSASVGDRVTITCQASQDITNYLNWYQQKPGKAPKLLIYAASNLETGVPSRFSGSGSGTDFTFTISGLQPEDIATYYCQQYDNLPLTFGGGTKVEIK", "binding result": "binds"},
      {"binder": "LCA60 (antibody, V domains shown, also called MERS nAb LCA60) VH: EVQLLESGGGLVKPGGSLRLSCEASGLTFSNVWMSWVRQAPGKGLEWVGRIKRKSEGATTDYGAPVKGRFTLSRDDSKNTVYLQMNSLKIDDTAVYYCSTLTRGGDVWSSSYYFDYWGQGALVTVSS VL: QSALTQPASVSGSPGQSITISCTGTSSDVGTYDLVSWYQQHPGKSPKLMIYADIKRPSGVSHRFSGSKSGNTASLTISGLQSADEADYYCCLYAGSSTSVIFGGGTKVT", "binding result": "no binding"},
      {"binder": "CC12.3 (antibody, V domains shown) VH: QVQLVESGGGLIQPGGSLRLSCAASGFTVSSNYMSWVRQAPGKGLEWVSVIYSGGSTFYADSVKGRFTISRDNSKSTLYLQMNSLRVEDTAVYYCARDFGDFYFDYWGQGTLVTVSS VL: not shown", "binding result": "binds"}
    ]},
    {"biological_target": "T1, SARS-CoV-2 RBD protein (321–591)", "experiment": "SPR", "details": "both partners purified", "units": {"Kd": "nM"}, "values": [
      {"binder": "CB6H-XG83L (antibody, V domains shown) VH: EVQLVESGGGLVQPGGSLRLSCAASGFTVSSNYMSWVRQAPGKGLEWVSVIYSGGSTFYADSVKGRFTISRDNSMNTLFLQMNSLRAEDTAVYYCARVLPMYGDYLDYWGQGTLVTVSS VL: QSVLTQPPSVSGAPGQRVTISCTGSSSNIGAGYDVHWYQQLPGTAPKLLIYGDSNRPSGVPDRFSGSKSGTSASLAITGLQAEDEADFYCQSYDSSLSTSIFGGGTKLTVL", "Kd": 0.58},
      {"binder": "CB6 (antibody, V domains shown) VH: EVQLVESGGGLVQPGGSLRLSCAASGFTVSSNYMSWVRQAPGKGLEWVSVIYSGGSTFYADSVKGRFTISRDNSMNTLFLQMNSLRAEDTAVYYCARVLPMYGDYLDYWGQGTLVTVSS VL: not shown", "Kd": 43.8}
    ]}
  ]
}
